Reference: US20050064507A1, “Determining kinase specificity” (priority 2003, published 2005)

Target: T1, PKC-theta (Homo sapiens, UniProt Q04759)
T1 construct: His-tag; made in house; host or cells: baculovirus-infected Sf9 cells
Test: In vitro kinase assay: peptide phosphorylation by PKC-theta
Assay type: biochemical
Source text: A second strategy for validation of the PSSM derived from the methods described herein is to identify sequences represented in the human proteome that have low percentiles derived from the PSSM, to synthesize peptides that have those sequences, and test the efficiency of phosphorylation of those peptides by the kinase of interest. […] The results are shown for individual peptides (FIG. 11, panel A) or for groups of peptides aggregated by percentile prediction (FIG. 11, panel B). As with the testing described above with prospectively chosen peptides, the percentile scores are highly predictive of phosphorylation by the relevant kinase.
An example of the purification procedure used for production of active kinase is as follows. A preparation of PKC-theta was prepared using a Gateway expression construct containing PKC-theta that was expressed in baculovirus, which were used to infect Sf9 cells. The cell pellet from a liter of baculovirus-infected Sf9 cells was resuspended in 20 volumes (60 ml) of extraction buffer (20 mM Na phosphate buffer pH 7.5, 500 mM NaCl, 5 mM pyrophosphate, 10% glycerol, 10 mM imidazole, 1 mM PMSF), sonicated twice for one minute (1 cm tip at 60% power and 50% duty cycle) and cell disruption was verified microscopically. The sample was adjusted to five mM MgCl2 and treated with one U benzonase/ml for an additional 20 minute on ice. The sample was clarified by centrifugation in a JA-20 rotor at 15K for 30 min at 4° C., filtered through a […] filter and applied at 0.5 ml/min to a one ml chelating sepharose column previously charged with nickel and equilibrated with extraction buffer. The column was washed with extraction buffer at one ml/min to baseline and eluted in a 20 ml gradient (20-500 mM imidazole in extraction buffer) into one ml fractions that were analyzed by SDS-PAGE. Fractions with the highest concentration of protein were pooled, were dialyzed twice against one liter of 20 mM Na PO4 pH 7.5, 50 mM NaCl buffer. The kinase pool was dialyzed twice against 20 mM HEPES pH 7.4, 100 mM NaCl, 2 mM EDTA, 5 mM DTT, 0.05% Triton-X-100. After dialysis, the sample was adjusted to 50% glycerol and quick-frozen in a dry ice/ethanol bath.
The conditions of the kinase assay and the amount of active kinase used varied with the kinase and with the accuracy needed. For a typical experiment, 5-20 ng of kinase was used per well and each peptide pool was assayed in duplicate wells. Note that the absolute amount of kinase used was not usually a critical parameter, because the desired information related to specificity of the kinase not its absolute activity, and robustness of the assay depends on comparisons of the same amount of kinase on different peptides. The combination of kinase concentration and assay duration was modified to assure that the stoichiometry of peptide phosphorylation never exceeded 5%. The choice of kinase buffer depended on the kinase being analyzed. For studies of PKC, 100 mM HEPES, 0.05% Triton-X100, 1 mM CaCl2, 20 mM MgCl2, 0.2 mg/ml phosphatidyl serine (Avanti Polar Lipids), PMA 100 ng/ml was typically used. The lipid stock was prepared by transferring 3 mg phosphatidyl serine into iced mixture of 450 μl water plus 50 μl of 10% Triton-X100, sonicating 10 times on ice for 1 sec each.
The kinase reaction mixture was assembled by sequential addition to a tube held on ice of: 5 μl peptide (100 μM for final concentration of 10 μM), 15 μl of kinase (typically 5 ng/well, in appropriate kinase buffer), 30 μl of ATP (1 uCi/well of ^32P-gamma ATP in a stock of 167 μM cold ATP in the kinase buffer; for final concentration for 100 μM ATP). The mixture was rapidly warmed to desired reaction temperature (30° C. for PKC) and incubated for the desired duration (usually 10 minutes). The kinase assay was terminated by transfer to 4° C. water batch, and rapid addition of an equal volume (50 μl) of stop solution [0.1M ATP+0.1M EDTA in water, pH 8]. […]

T1 sequence (Q04759 whole entry): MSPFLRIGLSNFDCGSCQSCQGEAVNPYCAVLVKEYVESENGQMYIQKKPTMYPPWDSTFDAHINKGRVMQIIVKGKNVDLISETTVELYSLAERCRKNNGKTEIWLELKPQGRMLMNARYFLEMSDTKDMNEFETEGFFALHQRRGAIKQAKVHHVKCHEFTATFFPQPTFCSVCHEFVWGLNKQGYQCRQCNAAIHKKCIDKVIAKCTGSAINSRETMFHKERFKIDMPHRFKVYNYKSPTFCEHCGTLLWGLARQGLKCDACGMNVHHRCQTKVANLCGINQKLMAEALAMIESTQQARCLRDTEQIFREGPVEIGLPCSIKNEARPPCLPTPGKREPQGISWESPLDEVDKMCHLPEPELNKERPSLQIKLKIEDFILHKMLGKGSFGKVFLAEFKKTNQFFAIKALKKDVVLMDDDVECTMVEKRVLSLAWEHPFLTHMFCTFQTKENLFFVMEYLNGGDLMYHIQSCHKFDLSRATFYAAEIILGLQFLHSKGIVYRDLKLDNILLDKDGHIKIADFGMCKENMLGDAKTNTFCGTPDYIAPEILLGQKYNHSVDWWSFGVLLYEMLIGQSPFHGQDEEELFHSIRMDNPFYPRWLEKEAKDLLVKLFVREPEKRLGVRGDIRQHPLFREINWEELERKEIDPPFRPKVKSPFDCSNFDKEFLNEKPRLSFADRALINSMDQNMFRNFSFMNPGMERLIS

| Substance | phosphorylation by PKC theta (peptide concentration 1 uM) | phosphorylation by PKC theta (peptide concentration 10 uM) | Peptide phosphorylation by PKC-theta (Table 8) |
| --- | --- | --- | --- |
| 140 (TELEGGFSRQRKRKLSFRRR) [compound 140] | 25 | 35 | – |
| 161 (KYKAFIRIPIPTRRHTFRRQ) [compound 161] | 19 | 23 | – |
| 157 (PSPSNETPKKKKKRFSFKKS) [compound 157] | 20 | 23 | – |
| 131 (WKGKRRSKARKKRK) [compound 131] | 53 | 35 | – |
| 138 (EYLERRASRRRAV) [compound 138] | 34 | 39 | – |
| 146 (QAQRQIKRGAPPRRSSIRNA) [compound 146] | 33 | 34 | – |
| 133 (LEKRGMLGKRPRRKSSRRKK) [compound 133] | 46 | 53 | – |
| 142 (ERHVAQKKSRLRRRASQLKI) [compound 142] | 28 | 37 | – |
| 159 (LYARLARAYRRSQRASFKRA) [compound 159] | 21 | 17 | – |
| 125 (PLKEKKRERKTSSKSSVRKR) [compound 125] | 39 | 100 | – |
| 114 (KKKKRASFKRKSSKKG) [compound 114] | 100 | 86 | – |
| 143 (VRYTPYTISPYNRKGSFRKQ) [compound 143] | 25 | 27 | – |
| 120 (AKRRRLSSLRASTSK) [compound 120] | 51 | 51 | – |
| 132 (GFLNEPLSSKSQRRKSLKLK) [compound 132] | 34 | 40 | – |
| 127 (SQVQKQRSAGSFKRNSIKKI) [compound 127] | 45 | 58 | – |
| 156 (SAQITIPKDGQKRKKSLRKK) [compound 156] | 18 | 23 | – |
| 158 (VQMTWSYPDEKNKRASVRRR) [compound 158] | 19 | 23 | – |
| 145 (ISDFGLAKKLAVGRHSFSRR) [compound 145] | 27 | 25 | – |
| 147 (RDIRQSPKRGFLRSASLGRR) [compound 147] | 20 | 69 | – |
| 160 (PFEVVWYKDKRQLRSSKKYK) [compound 160] | 19 | 25 | – |
| 116 (EEGTFRSSIRRLSTRRR) [compound 116] | 83 | 78 | – |
| 162 (KKKFSFKKPFKLSGLSFKRN) [compound 162] | 14 | 13 | – |
| 115 (NRKKKRTSFKRKA) [compound 115] | 89 | 77 | – |
| 119 (KKRFSFKKSFKLSGFSFKKN) [compound 119] | 69 | 28 | – |

| Substance | phosphorylation by PKC theta (peptide concentration 1 uM) | phosphorylation by PKC theta (peptide concentration 10 uM) | Peptide phosphorylation by PKC-theta (Table 8) |
| --- | --- | --- | --- |
| 129 (VQRHRSMRKTFARYLSFRRD) [compound 129] | 48 | 25 | – |
| 123 (KKRFSFKKSFKLSGFSFKKN) [compound 123] | 47 | 32 | – |
| 164 (TEGKMARVAWKGKRRSKARK) [compound 164] | 24 | 20 | – |
| 134 (RSRSRSRSKSKDKRKSRKRS) [compound 134] | 36 | 16 | – |
| 122 (RAITSTLASSFKRRR) [compound 122] | 66 | 42 | – |
| 165 (TEEKSKKRKKKHRKNSRKHK) [compound 165] | 16 | 14 | – |
| 139 (RPTPGDGEKRSRIKKSKKRK) [compound 139] | 31 | 17 | – |
| 155 (RWDKRRWRKIPKRPGSVHRT) [compound 155] | 23 | 26 | – |
| 136 (RARRDSLKKIEIW) [compound 136] | 42 | 28 | – |
| 163 (PPRTPGWHQLQPRRVSFRGE) [compound 163] | 14 | 11 | – |
| 135 (KKKFRTPSFLKKSKK) [compound 135] | 30 | 36 | – |
| 141 (VTDSQKRREILSRRPSYRKI) [compound 141] | 29 | 28 | – |
| 124 (PRLIRRGSKKRPAR) [compound 124] | 53 | 57 | – |
| 137 (PSKSPSKKKKKFRTPSFLKK) [compound 137] | 40 | 19 | – |
| 167 (GLPAPGEDKSIYRRGSRRWR) [compound 167] | 12 | 14 | – |
| 130 (EYLERRASRRRAV) [compound 130] | 38 | 44 | – |
| 121 (LRRRSLRRSNSISKSPGP) [compound 121] | 51 | 57 | 57 |
| 118 (RPQNTLKASKKKKRASFKRK) [compound 118] | 67 | 52 | – |
| 128 (QQVDRERPHVRRRRGTFKRS) [compound 128] | 41 | 59 | – |
| 117 (NRKKKRTSFKRKA) [compound 117] | 84 | 78 | – |
| 126 (KAIKAIEGGQKFARKSTRRS) [compound 126] | 46 | 45 | – |
| 144 (LSSMFGTLPRKSRKGSVRKQ) [compound 144] | 35 | 22 | – |
| 154 (KKFFTQGWAGWRKKTSFRKP) [compound 154] | 34 | 21 | – |
| 166 (MAQIERGEARIQRRISIKKA) [compound 166] | 13 | 13 | – |
